Results taken from US20180258140A1, “NEW DODECAPEPTIDES AND MICROCAPSULES FUNCTIONALISED WITH THEM TARGETED TO FIBROBLASTS” (Infinitec Activos, S.L., priority 2015, published 2018).
*: point of attachment. Palmitoyl = CCCCCCCCCCCCCCCC(=O)*

Target: FGFR2 Kinase (Homo sapiens, UniProt P21802)
Experiment: FGFR2 kinase inhibition
Format: biochemical
Details: percent inhibition of control enzyme activity; test concentration not given
Method: [The source words this procedure for another target and reports this target under the same test.] Evaluation of the effects of the dodecapeptides of the invention on the activity of the human FGFR1 kinase were quantified by measuring the phosphorylation of the substrate Ulight-CAGAGAIETDKEYYTVKD (JAK1) using a human recombinant enzyme expressed in insect cells and the LANCE® detection method using the protocol described below:
The peptide to be tested, the reference compound or water (control) are mixed with the enzyme (0.252 ng) in a buffer containing 40 mM Hepes/Tris (pH 7.4), 0.8 mM EGTA/Tris, 8 mM MgCl2, 1.6 mM DTT and 0.008% Tween 20 (For control basal measurements, the enzyme is omitted from the reaction mixture). Thereafter, the reaction is initiated by adding 100 nM of the substrate Ulight-CAGAGAIETDKEYYTVKD (SEQ ID NO: 13) (JAK-1 peptide) and 100 μM ATP, and the mixture is incubated for 60 min at room temperature. Following incubation, the reaction is stopped by adding 13 mM EDTA. After 5 min, the anti-phospho-PT66 antibody labeled with europium chelate (EU-W1024-labeled Anti-Phosphotyrosine Antibody PT66, from Perkin Elmer) is added. After 60 more min, the fluorescence transfer is measured at λex=337 nm, λem=620 nm and λem=665 nm using a microplate reader (Envision, Perkin Elmer).
The enzyme activity is determined by dividing the signal measured at 665 nm by that measured at 620 nm (ratio). The results are expressed as a percent inhibition of the control enzyme activity.
The standard inhibitory reference compound is staurosporine, which is tested in each experiment at several concentrations to obtain an inhibition curve from which its IC50 value is calculated.
Results showing an inhibition (or stimulation for assays run in basal conditions) higher than 20% are considered to represent significant effects of the peptides of the invention.

FGFR2 Kinase, sequence (P21802 22-821): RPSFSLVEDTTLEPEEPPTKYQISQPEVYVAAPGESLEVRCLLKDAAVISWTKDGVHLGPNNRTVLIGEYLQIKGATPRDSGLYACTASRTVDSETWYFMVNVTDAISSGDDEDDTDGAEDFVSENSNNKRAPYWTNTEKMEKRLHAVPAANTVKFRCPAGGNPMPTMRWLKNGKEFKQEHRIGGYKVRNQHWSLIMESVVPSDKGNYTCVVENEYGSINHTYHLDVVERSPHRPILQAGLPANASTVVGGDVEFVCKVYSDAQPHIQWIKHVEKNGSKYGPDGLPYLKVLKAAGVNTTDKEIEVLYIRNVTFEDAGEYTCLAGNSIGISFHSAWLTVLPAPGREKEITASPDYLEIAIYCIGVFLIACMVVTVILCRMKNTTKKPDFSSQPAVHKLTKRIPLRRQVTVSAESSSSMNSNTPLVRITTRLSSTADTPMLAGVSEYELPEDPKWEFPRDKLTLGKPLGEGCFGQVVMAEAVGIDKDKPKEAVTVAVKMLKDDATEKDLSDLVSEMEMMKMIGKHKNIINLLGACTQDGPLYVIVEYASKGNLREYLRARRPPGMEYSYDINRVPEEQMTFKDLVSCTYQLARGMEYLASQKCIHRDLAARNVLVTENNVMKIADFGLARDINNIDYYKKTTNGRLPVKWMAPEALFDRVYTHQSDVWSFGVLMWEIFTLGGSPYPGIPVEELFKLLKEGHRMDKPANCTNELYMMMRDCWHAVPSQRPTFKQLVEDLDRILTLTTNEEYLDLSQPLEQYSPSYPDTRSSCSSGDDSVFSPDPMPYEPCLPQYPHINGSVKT

Point of comparison: “Palm-Lys-Phe-Asn-Leu-Pro-Leu-Gly-Asn-Tyr-Lys-Lys-Pro-NH2 (Palmitoyl-KFNLPLGNYKKP-NH2; SMILES CCCCCCCCCCCCCCCC(=O)N[C@@H](CCCCN)C(=O)N[C@@H](Cc1ccccc1)C(=O)N[C@@H](CC(N)=O)C(=O)N[C@@H](CC(C)C)C(=O)N1CCC[C@H]1C(=O)N[C@@H](CC(C)C)C(=O)NCC(=O)N[C@@H](CC(N)=O)C(=O)N[C@@H](Cc1ccc(O)cc1)C(=O)N[C@@H](CCCCN)C(=O)N[C@@H](CCCCN)C(=O)N1CCC[C@H]1C(N)=O) [Peptide 1]”, “FGFR2 Kinase % Inhibition” value 95.4%. Against it:
- Palm-Lys-Phe-Asn-Leu-Pro-Ala-Gly-Asn-Tyr-Lys-Lys-Pro-NH2 (Palmitoyl-KFNLPAGNYKKP-NH2; SMILES CCCCCCCCCCCCCCCC(=O)N[C@@H](CCCCN)C(=O)N[C@@H](Cc1ccccc1)C(=O)N[C@@H](CC(N)=O)C(=O)N[C@@H](CC(C)C)C(=O)N1CCC[C@H]1C(=O)N[C@@H](C)C(=O)NCC(=O)N[C@@H](CC(N)=O)C(=O)N[C@@H](Cc1ccc(O)cc1)C(=O)N[C@@H](CCCCN)C(=O)N[C@@H](CCCCN)C(=O)N1CCC[C@H]1C(N)=O) [Peptide 6] — higher, 98.8%
- Palm-Lys-Phe-Asn-Leu-Ala-Leu-Gly-Asn-Tyr-Lys-Lys-Pro-NH2 (Palmitoyl-KFNLALGNYKKP-NH2; SMILES CCCCCCCCCCCCCCCC(=O)N[C@@H](CCCCN)C(=O)N[C@@H](Cc1ccccc1)C(=O)N[C@@H](CC(N)=O)C(=O)N[C@@H](CC(C)C)C(=O)N[C@@H](C)C(=O)N[C@@H](CC(C)C)C(=O)NCC(=O)N[C@@H](CC(N)=O)C(=O)N[C@@H](Cc1ccc(O)cc1)C(=O)N[C@@H](CCCCN)C(=O)N[C@@H](CCCCN)C(=O)N1CCC[C@H]1C(N)=O) [Peptide 5] — lower, 91.1%
- Palm-Lys-Phe-Asn-Leu-Pro-Leu-Gly-Asn-Tyr-Lys-Lys-Ala-NH2 (Palmitoyl-KFNLPLGNYKKA-NH2; SMILES CCCCCCCCCCCCCCCC(=O)N[C@@H](CCCCN)C(=O)N[C@@H](Cc1ccccc1)C(=O)N[C@@H](CC(N)=O)C(=O)N[C@@H](CC(C)C)C(=O)N1CCC[C@H]1C(=O)N[C@@H](CC(C)C)C(=O)NCC(=O)N[C@@H](CC(N)=O)C(=O)N[C@@H](Cc1ccc(O)cc1)C(=O)N[C@@H](CCCCN)C(=O)N[C@@H](CCCCN)C(=O)N[C@@H](C)C(N)=O) [Peptide 12] — lower, 90.1%
- Palm-Lys-Phe-Asn-Leu-Pro-Leu-Gly-Ala-Tyr-Lys-Lys-Pro-NH2 (Palmitoyl-KFNLPLGAYKKP-NH2; SMILES CCCCCCCCCCCCCCCC(=O)N[C@@H](CCCCN)C(=O)N[C@@H](Cc1ccccc1)C(=O)N[C@@H](CC(N)=O)C(=O)N[C@@H](CC(C)C)C(=O)N1CCC[C@H]1C(=O)N[C@@H](CC(C)C)C(=O)NCC(=O)N[C@@H](C)C(=O)N[C@@H](Cc1ccc(O)cc1)C(=O)N[C@@H](CCCCN)C(=O)N[C@@H](CCCCN)C(=O)N1CCC[C@H]1C(N)=O) [Peptide 8] — higher, 98.8%
- Palm-Lys-Phe-Ala-Leu-Pro-Leu-Gly-Asn-Tyr-Lys-Lys-Pro-NH2 (Palmitoyl-KFALPLGNYKKP-NH2; SMILES CCCCCCCCCCCCCCCC(=O)N[C@@H](CCCCN)C(=O)N[C@@H](Cc1ccccc1)C(=O)N[C@@H](C)C(=O)N[C@@H](CC(C)C)C(=O)N1CCC[C@H]1C(=O)N[C@@H](CC(C)C)C(=O)NCC(=O)N[C@@H](CC(N)=O)C(=O)N[C@@H](Cc1ccc(O)cc1)C(=O)N[C@@H](CCCCN)C(=O)N[C@@H](CCCCN)C(=O)N1CCC[C@H]1C(N)=O) [Peptide 3] — higher, 98.7%
- Palm-Lys-Phe-Asn-Leu-Pro-Leu-Gly-Asn-Tyr-Lys-Ala-Pro-NH2 (Palmitoyl-KFNLPLGNYKAP-NH2; SMILES CCCCCCCCCCCCCCCC(=O)N[C@@H](CCCCN)C(=O)N[C@@H](Cc1ccccc1)C(=O)N[C@@H](CC(N)=O)C(=O)N[C@@H](CC(C)C)C(=O)N1CCC[C@H]1C(=O)N[C@@H](CC(C)C)C(=O)NCC(=O)N[C@@H](CC(N)=O)C(=O)N[C@@H](Cc1ccc(O)cc1)C(=O)N[C@@H](CCCCN)C(=O)N[C@@H](C)C(=O)N1CCC[C@H]1C(N)=O) [Peptide 11] — lower, 89.9%
- Palm-Lys-Ala-Asn-Leu-Pro-Leu-Gly-Asn-Tyr-Lys-Lys-Pro-NH2 (Palmitoyl-KANLPLGNYKKP-NH2; SMILES CCCCCCCCCCCCCCCC(=O)N[C@@H](CCCCN)C(=O)N[C@@H](C)C(=O)N[C@@H](CC(N)=O)C(=O)N[C@@H](CC(C)C)C(=O)N1CCC[C@H]1C(=O)N[C@@H](CC(C)C)C(=O)NCC(=O)N[C@@H](CC(N)=O)C(=O)N[C@@H](Cc1ccc(O)cc1)C(=O)N[C@@H](CCCCN)C(=O)N[C@@H](CCCCN)C(=O)N1CCC[C@H]1C(N)=O) [Peptide 2] — higher, 96.3%
- Palm-Lys-Phe-Asn-Leu-Pro-Leu-Ala-Asn-Tyr-Lys-Lys-Pro-NH2 (Palmitoyl-KFNLPLANYKKP-NH2; SMILES CCCCCCCCCCCCCCCC(=O)N[C@@H](CCCCN)C(=O)N[C@@H](Cc1ccccc1)C(=O)N[C@@H](CC(N)=O)C(=O)N[C@@H](CC(C)C)C(=O)N1CCC[C@H]1C(=O)N[C@@H](CC(C)C)C(=O)N[C@@H](C)C(=O)N[C@@H](CC(N)=O)C(=O)N[C@@H](Cc1ccc(O)cc1)C(=O)N[C@@H](CCCCN)C(=O)N[C@@H](CCCCN)C(=O)N1CCC[C@H]1C(N)=O) [Peptide 7] — higher, 98.4%
- Palm-Lys-Phe-Asn-Ala-Pro-Leu-Gly-Asn-Tyr-Lys-Lys-Pro-NH2 (Palmitoyl-KFNAPLGNYKKP-NH2; SMILES CCCCCCCCCCCCCCCC(=O)N[C@@H](CCCCN)C(=O)N[C@@H](Cc1ccccc1)C(=O)N[C@@H](CC(N)=O)C(=O)N[C@@H](C)C(=O)N1CCC[C@H]1C(=O)N[C@@H](CC(C)C)C(=O)NCC(=O)N[C@@H](CC(N)=O)C(=O)N[C@@H](Cc1ccc(O)cc1)C(=O)N[C@@H](CCCCN)C(=O)N[C@@H](CCCCN)C(=O)N1CCC[C@H]1C(N)=O) [Peptide 4] — lower, 87.5%

Test system: Human dermal fibroblasts
Experiment: Cytotoxicity assay (MTT) in fibroblasts
Format: cell-based
Details: positive control 0.1% SDS, 48h incubation
Method: (§1) Human dermal fibroblasts and human keratinocytes were used. The isolated cells were cultured in DMEM culture medium supplemented with 10% FCS and were incubated at 37° C. for maintenance treatment. Untreated cells were used as negative control. The positive control was 0.1% SDS. The microcapsules as obtained in Example 2 were tested in the DMEM culture medium at 0.03%. These weight percentages refer to the weight of the microcapsule in relation to the total weight. Cells were seeded at 20000 cells per well in a 96-well plate. 24 hours after seeding, cells were incubated under the conditions described above. After 48h of incubation at 37° C., the culture medium was removed and the MTT reagent was added. Cells were incubated 2 hours at 37° C. DMSO was then added and the absorbance of the formed formazan salt was measured at A 570 nm. Lower absorbance values correspond to cells with lower metabolic activity, which correlates with an increased damage and, therefore, with an increased cytotoxic effect. Thus, the amount of living cells is proportional to the amount of formazan produced.

In the case of CCCCCCCCCCCCOS(=O)(=O)[O-].[Na+] [SDS, Sodium dodecyl sulfate], the “Fibroblasts % cell viability” value is reported as 25.0%.

Test system: human keratinocytes
Experiment: Cytotoxicity assay (MTT) in keratinocytes
Format: cell-based
Details: positive control 0.1% SDS, 48h incubation
Method: as §1

CCCCCCCCCCCCOS(=O)(=O)[O-].[Na+] [SDS, Sodium dodecyl sulfate] was tested, and the “Keratinocytes % cell viability” value was 12%.
